Changes are numbered by the printed parent chain. In names and notes the source's numbering stands.

One assay has as its target Cdk2 protein (human, UniProt P24941 1-298). The experiment in a line: Co-IP from transfected U2OS extracts with Cdk2 antibody, Western blot with T7 tag antibody. In general terms: Immunoblotting shows a protein as a band on a membrane.
In assay [1] the target is T1, GFP-FoxM1B fusion protein, wild type (CMV GFP-FoxM1B; GFP-T7-FoxM1B WT; GFP-FoxM1B 1-748 full-length) (human, UniProt Q08050 1-763).
T1 construct: Expressed in transfected U2OS cells; also called CMV-GFP-T7-FoxM1B; GFP-FoxM1B WT; not shown: green fluorescent protein (EGFP) of the pEGFP-C2 expression plasmid (Clontech), N-terminal fusion partner
T1 sequence: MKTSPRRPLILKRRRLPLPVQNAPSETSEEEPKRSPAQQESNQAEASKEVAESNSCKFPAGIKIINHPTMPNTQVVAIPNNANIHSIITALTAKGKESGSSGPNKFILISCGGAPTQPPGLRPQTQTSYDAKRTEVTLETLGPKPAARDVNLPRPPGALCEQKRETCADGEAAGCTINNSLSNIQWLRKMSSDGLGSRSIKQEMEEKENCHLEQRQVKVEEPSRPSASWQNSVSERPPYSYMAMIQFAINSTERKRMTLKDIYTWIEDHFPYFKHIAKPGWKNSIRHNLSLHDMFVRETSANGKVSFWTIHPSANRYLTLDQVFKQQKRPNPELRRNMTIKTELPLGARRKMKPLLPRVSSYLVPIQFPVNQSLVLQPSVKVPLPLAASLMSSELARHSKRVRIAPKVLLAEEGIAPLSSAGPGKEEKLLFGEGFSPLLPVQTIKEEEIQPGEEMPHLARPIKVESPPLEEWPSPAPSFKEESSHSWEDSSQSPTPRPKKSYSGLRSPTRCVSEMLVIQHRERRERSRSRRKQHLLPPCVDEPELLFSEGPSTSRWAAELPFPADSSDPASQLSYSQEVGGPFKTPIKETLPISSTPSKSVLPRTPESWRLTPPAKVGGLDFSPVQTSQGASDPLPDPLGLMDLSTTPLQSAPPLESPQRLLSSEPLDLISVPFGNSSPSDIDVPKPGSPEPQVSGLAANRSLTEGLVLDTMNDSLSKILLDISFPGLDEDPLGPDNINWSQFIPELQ
As to the kind of experiment: Co-IP with HA antibody, Western blot with GFP antibody.

In a further assay the target is T2, GFP-FoxM1B 1-688 protein (human, UniProt Q08050 1-703).
T2 construct: not shown: green fluorescent protein (EGFP) of the pEGFP-C2 expression plasmid (Clontech), N-terminal fusion partner
T2 sequence: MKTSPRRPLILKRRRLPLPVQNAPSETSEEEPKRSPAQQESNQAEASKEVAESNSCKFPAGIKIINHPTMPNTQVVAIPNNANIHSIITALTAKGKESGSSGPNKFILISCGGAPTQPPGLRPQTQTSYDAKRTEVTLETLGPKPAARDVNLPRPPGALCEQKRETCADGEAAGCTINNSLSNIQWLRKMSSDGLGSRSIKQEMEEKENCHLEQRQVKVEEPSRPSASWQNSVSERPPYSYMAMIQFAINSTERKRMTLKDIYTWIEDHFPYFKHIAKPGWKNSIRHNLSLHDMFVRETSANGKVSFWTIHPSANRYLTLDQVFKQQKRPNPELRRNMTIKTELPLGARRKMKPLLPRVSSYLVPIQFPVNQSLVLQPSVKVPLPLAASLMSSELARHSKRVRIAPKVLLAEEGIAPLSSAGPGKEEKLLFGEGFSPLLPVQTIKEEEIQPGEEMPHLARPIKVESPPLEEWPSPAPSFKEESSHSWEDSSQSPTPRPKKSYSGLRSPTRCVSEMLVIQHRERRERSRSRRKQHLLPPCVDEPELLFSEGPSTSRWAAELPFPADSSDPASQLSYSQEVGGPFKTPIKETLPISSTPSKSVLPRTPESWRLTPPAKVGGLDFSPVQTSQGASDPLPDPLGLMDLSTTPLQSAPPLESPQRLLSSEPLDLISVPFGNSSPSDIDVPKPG
The experiment in a line: Co-IP from transfected U2OS extracts.

Text for Cdk2 protein: The immunoprecipitated proteins were subjected to Western blot analysis using a monoclonal antibody against the T7 epitope tagged antibody protein.

B1: T7-FoxM1B L641A mutant protein (other, not shown: small tags and cut ends)
chain: T1 sequence with L641A
notes: expressed in transfected U2OS cells; also called CMV T7-FoxM1B L641A; CMV FoxM1B L641A
B1: in the assay with Cdk2 protein, the binding result is listed as “no binding”.

B2: HA-p19^ARF Δ26-37+Δ1-14 deletion mutant (other, not shown: small tags and cut ends)
chain: GRPLQERVFLVCALAFVNMLLRLERILRRGPHRNPGPGDDDGQRSRSSSSAQLRCRFELRGPHYLLPPGDRRSAGRLPGHAGGAARVRGSAGCARCLGSPAARLGPRAGTSRHRAIFAFRWVLFVFRWVVFVYRWERRPDRRA
notes: Deletion of p19 residues 1-14 and 26-37
Take B2: in assay [1], the binding result is reported as “no binding”.

B3: HA-p19^ARF Δ26-37 deletion mutant (other, not shown: small tags and cut ends)
chain: MGRRFLVTVRIQRAGRPLQERVFLVCALAFVNMLLRLERILRRGPHRNPGPGDDDGQRSRSSSSAQLRCRFELRGPHYLLPPGDRRSAGRLPGHAGGAARVRGSAGCARCLGSPAARLGPRAGTSRHRAIFAFRWVLFVFRWVVFVYRWERRPDRRA
notes: Deletion of p19 residues 26-37; also called CMV p19^ARFΔ26-37
Regarding B3, the binding result in assay [1] is on record as “no binding”.

B4: HA-p19^ARF WT protein (other, not shown: small tags and cut ends)
chain: MGRRFLVTVRIQRAGRPLQERVFLVKFVRSRRPRTASCALAFVNMLLRLERILRRGPHRNPGPGDDDGQRSRSSSSAQLRCRFELRGPHYLLPPGDRRSAGRLPGHAGGAARVRGSAGCARCLGSPAARLGPRAGTSRHRAIFAFRWVLFVFRWVVFVYRWERRPDRRA
notes: residues 26-44 of it are the printed p19ARF 26-44 peptide; Expressed in transfected U2OS cells; also called WT p19; HA tagged p19
For the molecule B4, in the assay with GFP-FoxM1B 1-688 protein, the binding result is on record as “no binding”.
